Usually Ki stands for a measure of affinity in units of concentration, obtained from inhibition or displacement.

The test system of one assay is CHO-K1 cells. The assay can be described thus: FVII expression of CHO-K1 cells coexpressing FVII and a free FVII propeptide. The class given is cell-based. The conditions noted are these: pools of CHO-K1 transfectants, pLN174 plus FVII propeptide in pcDNA3.1+; control with empty vector approximately 1 pg/cell/day. The method, then:
CHO K1 cells (ATCC CCI61) were transfected with equal amounts of pLN174 and pLN329 with the Fugene6 method (Boehriner-Mannheim). Transfectants were selected by the addition of methotrexate to 1 μM and G-418 to 0.45 mg/ml. The pool of transfectants were cloned by limiting dilution and FVII expression from the clones was measured.
CHO-K1 cells were transfected with pLN174 and 1) empty pcDNA3.1+ vector or 2) FVII propeptide in pcDNA3.1+, as described in Example 1. Pools of transfectants were analysed for FVII expression and cell numbers. The FVII yields pr. cell pr. 24 hours are outlined in FIG. 3.
Consider “propeptide of FVII, AVFVTQEEAHGVLHRRRR (SEQ ID NO:7); expressed free from plasmid pLN329 (listed as Homo sapiens)”, for which the “FVII yields pr. cell pr. 24 hours” value is recorded as around 4 pg/cell/day.

The next assay has as its target T1, gamma-glutamyl carboxylase (Homo sapiens, UniProt P38435).
T1 sequence (P38435 1-758): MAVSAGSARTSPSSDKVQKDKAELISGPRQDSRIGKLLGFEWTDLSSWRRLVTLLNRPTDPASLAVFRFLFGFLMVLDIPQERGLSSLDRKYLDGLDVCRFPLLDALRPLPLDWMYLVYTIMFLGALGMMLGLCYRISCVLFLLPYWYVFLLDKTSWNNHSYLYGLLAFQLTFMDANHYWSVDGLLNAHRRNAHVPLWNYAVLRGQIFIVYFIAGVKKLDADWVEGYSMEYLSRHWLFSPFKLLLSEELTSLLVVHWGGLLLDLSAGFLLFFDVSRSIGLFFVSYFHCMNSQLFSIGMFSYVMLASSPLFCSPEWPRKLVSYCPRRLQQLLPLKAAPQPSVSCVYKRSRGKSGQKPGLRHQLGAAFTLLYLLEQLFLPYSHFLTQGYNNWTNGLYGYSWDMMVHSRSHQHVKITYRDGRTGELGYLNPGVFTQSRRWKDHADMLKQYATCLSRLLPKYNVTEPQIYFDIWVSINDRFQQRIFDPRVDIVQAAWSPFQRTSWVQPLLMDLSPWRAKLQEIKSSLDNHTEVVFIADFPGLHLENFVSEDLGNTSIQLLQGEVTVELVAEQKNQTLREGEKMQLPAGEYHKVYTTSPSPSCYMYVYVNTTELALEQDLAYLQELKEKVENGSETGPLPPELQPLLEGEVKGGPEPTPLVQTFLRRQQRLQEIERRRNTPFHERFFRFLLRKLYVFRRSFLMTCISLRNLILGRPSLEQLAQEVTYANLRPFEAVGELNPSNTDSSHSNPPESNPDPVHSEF
Experiment: not given
Conditions: free propeptide of vitamin K-dependent protein, positions -18 to -1; cited from earlier work.
For the substance “consensus propeptide sequence AVFLSREQANQVLQRRRR (SEQ ID NO:1) (listed as Homo sapiens)”, the Ki was 0.43 nM.
Consider “propeptide of FVII, AVFVTQEEAHGVLHRRRR (SEQ ID NO:7); expressed free from plasmid pLN329 (listed as Homo sapiens)”, for which the Ki is 11.1 nM.
Consider “propeptide of Matrix Gla Protein, NPFINRRNANTFISPQQR (SEQ ID NO:3)”, for which the Ki was 5.8 nM.
As to “propeptide of Protein C, SVFSSSERAHQVLRIRKR (SEQ ID NO:9) (listed as Homo sapiens)”, the Ki was 230 nM.
Regarding “propeptide of Protein S, ANFLSKQQASQVLVRKRR (SEQ ID NO:4) (listed as Homo sapiens)”, the Ki is 12.2 nM.
With “propeptide of Prothrombin, HVFLAPQQARSLLQRVRR (SEQ ID NO:6) (listed as Homo sapiens)”, the Ki is 277 nM.
Regarding “propeptide of factor X, SLFIRREQANNILARVTR (SEQ ID NO:2) (listed as Homo sapiens)”, the Ki was 2.6 nM.
Take “propeptide of proline-rich Gla protein 1, RVFLTGEKANSILKRYPR (SEQ ID NO:5) (listed as Homo sapiens) [PRGP1]”: the Ki was 12.8 nM.

Source of the values: patent US8202973B2, “Method for the production of vitamin K-dependent proteins” (Novo Nordisk Health Care AG, priority 2000, dated 2012).
